Measurements: PMC5811608, “Structure of prothrombin in the closed form reveals new details on the mechanism of activation” (Scientific Reports, 2018)

Target: Human recombinant prethrombin-2 (human)
Experiment: SPR; Biacore S200; prethrombin-2 amine-coupled (NHS/EDC) to a CM5 chip, 1633 RU; fragment-1 injected, two-fold dilutions 7.4-119 uM, single-cycle kinetics, 35 ul/min; 20 mM HEPES, 150 mM NaCl, 5 mM CaCl2, pH 7.4; referenced to an unmodified CM5 surface
Conditions: both partners purified

Kd: > 200 µM
B1: fragment-1 of prothrombin (domain or fragment)
chain: ANTFLEEVRKGNLERECVEETCSYEEAFEALESSTATDVFWAKYTACETARTPRDKLAACLEGNCAEGLGTNYRGHVNITRSGIECQLWRSRYPHKPEINSTTHPGADLQENFCRNPDSSTTGPWCYTTDPTVRRQECSIPVCGQDQVTVAMTPR
modifications: purchased fragment-1 (presumably plasma-derived): Gla domain gamma-carboxyglutamates, N-glycans and disulfides expected; 5 mM CaCl2 in assay. Mature numbering + 43 = precursor; ends at cleavage site …
